Consider one substance from paper PMC6376876.

This data set concerns CC(=O)Oc1ccc([N+](=O)[O-])cc1. Kind of data set: purified protein.

By Km is commonly meant the concentration of substrate that gives half-maximal velocity. The term Vmax denotes the top rate of the reaction or transport when substrate is in excess. As a reminder, the kcat is the number of substrate molecules converted per active site and unit of time at saturation. By kcat/Km is commonly meant the turnover number divided by the Michaelis constant. Regarding LsALDH16 (Loktanella sp. 3ANDIMAR09), the Km was 1740 µM, the maximal velocity (Vmax) came to 7.9 µmol/min/mg, the kcat is 10.6 ± 1.6 s⁻¹ and the specificity constant (kcat/Km) is 6000 ± 2000 M⁻¹ s⁻¹.
